Experiment: soluble on expression in E. coli; label from the status in PepcDB or PDB records

| Sequence | soluble on expression in E. coli |
| --- | --- |
| MHNSSSSTIGKPLIPQKLPEFLNAYENFIIAGHKEPDGDCIGSCLAMSFFLKRKNKNCILMSAGPFKRTEIKEYEHLFTDKLKISDKINPKTTGLIILDCSNFDRVGEIAELISGFNYIIIDHHATNTEKSDTSLIMPEAPSTTYLIQSIIEEIGEKLTKEEADALFFGLCTDTGFFRHLDAGSAEVFAHASRLIEAGANPKQTFMKINGGKKFESRLLISRILNRMKTYYDGRLVVSYETYDDLLEFGLESRDSDILYQLIQSIEGVEAICIVRQDSPSHCSVGFRSLDKIDVSKIAASFGGGGHKQASGLYIEGKFDDLIPRFVEAFGTQMLEHHHHHH | soluble |
| MLTKVIEQAKIDHFTKWFERADKIVIVSHVSPDGDAIGSSLGLYHFLDSQEKTVNVIVPNAFPDFLRWMPGSKDILLYDRYKDFADKLIAEADVICCLDFNALKRIDEMADAVAASPARKVMIDHHLYPEEFCKITMSYPKISSTSELIFRLICRMGYFSDISKEGAECIYTGMMTDTGGFTYNSNNREIYFIISELLSKGIDKDDIYRKVYNTYSESRLRLMGYVLSNMVVYSDYNAALISLTKEEQSKFDYIKGDSEGFVNIPLTIKNVCFSCFLREDTEKPMIKISLRSVGTFPCNQLAAEFFNGGGHLNASGGEFFGTIEEAKAVFEQALEKYKPLLTAKSLEHHHHHH | soluble |
| MGSDKIHHHHHHLYNQPEVALEKYELTVSRIIKGRGAYICDTGIGQKLLVPYRGHEQRACTLRDTLAFIQRNGMDVEQISQTKEQCIISRDNCEDAYILKDYRAGRECSTDSIDDMRGGSRALAQLHNILEKYPLPSDIEVESLYEKAQRKCAQIVKLKNYILRRSKTNAFEHLFYECYERFLEQGQKSAEILCELENSKTSVPIYCHGAFNQHNVVYTQSGRWLPVNFETMHPGYPETDLAEYMRKMLEKNHWDTAVADAILDSYCSVRSLDDTSMRLLQALLLFPEKFCKLCNHYSNSRKSWVCDRDVDKLAQLIQLSGEREEYLHALQAIV | not soluble |
| MEDFFSIGQIINTHGVRGELKIYPLTDDINRFDDLDSVYVDNEIKKVISVKKQPNKLILKLEGIDTLDEAVKYKNKYIKVLREDAVELKEGQYFIKDIIGCNVFDENDKDLGEVYDVISTKNNDVYCIRKEGQQDILVPALKDIVLKIEIENKKIVIKAVEEWLESLEHHHHHH | soluble |
| EIILNASAMFNHSNAKLALSIDKKLRKVIVTPDMHRVHHSVMVKETHSNFGFFLSVWDRWFGTYRAQPALGHNDVVIGVPEIREASEQRLDKLLTQPFRYREGKGKNVD | not soluble |
| MGSDKIHHHHHHMILVTGANGLVGSFLCNELAGKGYRVKALVREKSDTSLLKAVAGSIELVYGDITDAGSLVDAMEDVMCVVHTAAVISFWNKKNKEMYQTNVVGTRNVVDVALEKGVKKMIHISSIAAIGRKATDTRIDEKNNWEESAVNTAYAVTKHQAELEIFRAVEEGLHAVIINPSVILGPGLKGTSSVRLFEYVQQKGKFYTDGDLNYVDVRDVVESIEYFISHETPAGERYILNGGTVSFKTFFEKIAEMLHTNPPSVKASDWMKQIVWRVEAIKAFITGKEPLITKSTARTATNKFEYSADKIMQLSQRSFRPLQDTIYWTCKQLF | not soluble |
| MVKPKYSRVLIKLSGEALAGEKGVGIDIPTVQTIAQEIKEVHDSGIEIALVIGGGNLWRGEPASKAGMDRVQADYTGMLGTVMNALVMADALQHAGVDTRVQTAIAMQQVAEPYIRGRALRHLQKGRIVIFAAGVGSPYFSTDTTSALRAAEIEADAILMAKNGVDGVYNDDPRKNADAIKFNELTHMEVLKRGLKIMDSTASSLSMDNDIDLVVFNLNESGNIKRVIFGEQIGTTVTSRISDSEMAGDPLEHHHHHH | soluble |
| MAHHHHHHMDALIGQLENVEPDNILKSAEEFRNDKSDVKVNLSIGVCCDENGQLHIFKSVLEAEKLVQQRYKEKPYMLSNGTKQFSLLTQKLIFGENSKYLKEKKICTVQAIGGTGAICIALQLFKMLHIREICVTNKPYVNHVNMITSNGIKVKYISFFEEKLVNINYDAFLNDLRKLEDGSVLLLQVSCYNPCSTNIEEIYFDEIANIVWKKKHVIVFDIAYQGFGSSNMNDDVSLVKKFEERGISFVVCQSFSKNMSLYGERAGALHIVCKSKEERKIVANNLRVITRKFYSSPTIHTNRIVCQLLEDEKLKSEWISDLRELSERVHKNRVLFFEKMEFYQKKFDLHYDWSVYKKQRGIFSFVPMFSAIYRKLKEHHVYIIDNGRINVSGITARNVDYVAEKVCLSLAEVKRCG | not soluble |
| MSLQKVKLPLTLDPVRTAQKRLDYQGIYTPDQVERVAESVVSVDSDVECSMSFAIDNQRLAVLNGDAKVTVTLECQRCGKPFTHQVYTTYCFSPVRSDEQAEALPEAYEPIEVNEFGEIDLLAMVEDEIILALPVVPVHDSEHCEVSEADMVFGELPEEAQKPNPFAVLASLKRKEGGSHHHHHH | soluble |
| MFDGEDLKKIFAMDGFLRNIEFEVSYISEGSIEIKVPLKENLMRVGDIMNGGAIMAISDAIGGLTVMTYGSVINQVTVNFNTEFIRPIGTGPVIFRSSMVRIGKNIAYVDVAAIDGNGQLCSKSMGTYYIYR | soluble |
| MCMYGGIYVNNGYSPMSSNQQNVSVEHDIIMRGRRVIDITGVKQVESFDSEEFLLETVMGFLTIRGQNLQMKNLDVEKGVVSIKGKVHEMLYIDENQGEKTKGFFSKLFKLEHHHHHH | soluble |
| MDHENLMKYLEEFRSIRFQPDFQKVDAERNVRYCEITDFPISNISFELLETGVSQQWRNCDQNLFNEYLKTYKNGGYSQFEDLLFKIWGYSEEKERFDLPALKSFYRKMSEIVGEDEVLEKLARLVRITKSACEVLPEKIYRLVGDIESATFSHIQCASLIAWMFFSDTPRLSFIIILQKTTCVAVEKLKFLFTYFDKMSIDPPIGAVSFRKMRITHKQYLENWKLRETNLLPDVQVFDKMSIEETALCTQIDFANKRLGGGVLKGGAVQEEIRFMMCPEMMVAILLNDVTQDLEAISIVGAYVFSSYTGYSNTLKWAKITPKHSAQNNNSFRDQFGRLQTETVAIDAVRNAGTPLECLLNQLTTEKLTREVRKAAIGFLSAGDGFSKIPVVSGWWGCGAFRGNKPLKFLIQVIACGISDRPLQFCTFGDTELAKKCEEMMTLFRNNNVRTGQLFLIINSIGPPLNYSEQYVFDAIRAKINSTKA | not soluble |
| MESPLGSDLARLVRIWRALIDHRLKPLELTQTHWVTLHNIHQLPPDQSQIQLAKAIGIEQPSLVRTLDQLEDKGLISRQTCASDRRAKRIKLTEKADALIAEMEEVIHKTRGEILAGISSEEIELLIKLIAKLEHNIMELHSHD | not soluble |
| MGSDKIHHHHHHMKASCYGSVGMAAMVAANLGEALKIFEQFIGSRCDAFKPELKQEQNDVYWSIHQPLKSFQLSSDATIFLLLGFIHIAKHLTGLSALGTVQLNMPEPIGFSKIKDKLGVSFLFDQKHNIWIFPKEYLMQPVLTADPMLAPLLKAQCKKDIDKLKLRSGWKAEISQVIKKLLINSQGEILKVKQVAQMMNMSERSLQRYLAIENTSFSALVDLTRKQYAQELLQNSLMSIESVALSLGYADTSHFTRAFKRWMGVTPKYYQTQLKLKNLEIRE | not soluble |
| HDTILFFSNKGKVYRAKGYEIPEYGRTAKGIPIINLLEVEKGEWINAIIPVTE | not soluble |
| NTGIVSSFFTYTGPAHGTQWDEIDIEFLGKDTTKVQFNYYTNGVGGHEKVISLGFDASKGFHTYAFDWQPGYIKWYVDGVLKHTATANIPSTPGKIMMNLWNGTGVDDWLGSYNGANPLYAEYDWVKYTSNQTGGSFFEPFNSYNSGTWEKADGYSNGGVFNCTWRANNVNFTNDGKLKLGLTSSAYNKFDCAEYRSTNIYGYGLYEVSMKPAK | soluble |
| MGKRVVYPGTFDPPHYGHLDIVKRSARIFDEVVVAVAKKPRKFLLFDAEERVKMFEKMVEDIPNVEVKMFDCLLVDFMKREGINVIVRGVRLFTDFEYELQIALTNYKLAGVETVFMMPSQEYIHISSTIVRDVASYCGDLDNMVHPYVKQKLREKFNCGS | soluble |
